We go through one molecule from US20200172582A1 (UNIVERSITY OF FLORIDA RESEARCH FOUNDATION, published 2020).

Assay [1] deals with T1, SIGNR1-hFc (extracellular region of murine SIGNR1 fused to the Fc part of human IgG1) (mouse; human, UniProt Q8CJ91 74-325; P01857 104-330 = IgG part, limits assumed).
T1 construct: extracellular domain;domain: Fc part of human IgG1; Expressed in CHO-S cells
In words: flow cytometry of SlpA-coated beads with hFc fusion proteins. As for the experimental part:
(§1) FIGS. 5A-5D. L. acidophilus NCK2187 and its SlpA bind to murine SIGNR3 to induce regulatory signals. A. B6 mice were orally gavaged with 10⁹ CFU NCK56 or NCK2187 and the colonic gene expression of C-type lectin receptors were measured by RT-PCR. Each box represents an individual mouse; n=4. Data represent three individual experiments and are shown as mean±SEM. B. Binding of SlpA to various hFc fusion proteins were analyzed by flow cytometry. Gray tinted line=SlpA-coated beads only; orange=SlpA-coated beads+secondary antibody; green=SlpA-coated beads+control fusion protein; blue=SlpA-coated beads+SIGNR1-hFc; red=SlpA-coated beads+SIGNR3-hFc. Binding assays results were confirmed five independent times. C. […] production by colonic DCs of naïve WT B6 GF or Signr3^{-/-} mice treated with NCK56 (blue) or NCK2187 (green) on days 0, 3, 6, and 9, or left untreated (black), as determined by flow cytometry. D. Frequency of colonic FoxP3⁺ Tregs in KO mice treated with NCK56 or NCK2187 was measured by flow cytometry. n=5 mice/group. Data represent four individual experiments and are shown as mean±SEM. *P<0.05. […]
(§2) C-type lectin receptors, SIGNR1 and SIGNR3, were fused to the Fc part of human IgG1 (SIGNR1-hFc and SIGNR3-hFc) as previously described (Eriksson et al., 2013). […] Binding of SlpA-coated beads (Dynabeads MyOne Carboxylic Acid, Life Technologies) to fusion proteins was analyzed by flow cytometry.

A further assay deals with T2, hFc (human, UniProt P01857-1 104-330 = IgG part, limits assumed).
T2 construct: domain: Fc; Fc-only control in the SlpA bead assay; also called human Fc
The assay is described as above. Here is the method: as §1, §2

T1 sequence (Q8CJ91 other isoform, or with tags, fused parts or gaps limits assumed): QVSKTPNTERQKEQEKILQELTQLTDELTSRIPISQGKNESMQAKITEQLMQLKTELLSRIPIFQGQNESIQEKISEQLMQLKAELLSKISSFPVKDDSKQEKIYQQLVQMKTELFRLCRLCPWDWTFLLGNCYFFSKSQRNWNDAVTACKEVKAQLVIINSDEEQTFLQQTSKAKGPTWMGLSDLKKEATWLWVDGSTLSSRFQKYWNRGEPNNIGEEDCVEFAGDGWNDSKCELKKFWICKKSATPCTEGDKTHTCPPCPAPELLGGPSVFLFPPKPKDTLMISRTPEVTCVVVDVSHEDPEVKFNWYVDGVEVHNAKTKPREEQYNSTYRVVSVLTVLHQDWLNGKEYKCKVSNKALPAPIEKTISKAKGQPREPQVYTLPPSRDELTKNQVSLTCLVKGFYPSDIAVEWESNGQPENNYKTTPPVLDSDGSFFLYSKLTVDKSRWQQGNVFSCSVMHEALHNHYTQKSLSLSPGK

B1: Lactobacillus acidophilus surface layer protein A (SlpA), purified from strain NCK2187 (other)
chain: AVSTVSAATTINASSSAINTNTNAKYDVDVTPSVSAVAANTANNTPAIAGNLTGTISASYNGKTYTANLKADTENATITAAGSTTAVKPAELAAGVAYTVTVNDVSFNFGSENAGKTVTLGSANSNVKFTGTNSDNQTETNVSTLKVKLDQNGVASLTNVSIANVYAINTTDNSNVNFYDVTSGATVTNGAVSVNADNQGQVNVANVVAAINSKYFAAQYADKKLNTRTANTEDAIKAALKDQKIDVNSVGYFKAPHTFTVNVKATSNTNGKSATLPVVVTVPNVAEPTVASVSKRIMHNAYYYDKDAKRVGTDSVKRYNSVSVLPNTTTINGKTYYQVVENGKAVDKYINAANIDGTKRTLKHNAYVYASSKKRANKVVLKKGEVVTTYGASYTFKNGQKYYKIGDNTDKTYVKVANFR
notes: Native protein extracted from the surface of L. acidophilus NCK2187 with 5 M LiCl or 5 M NaCl (46 kDa band); In the assays it was coated on carboxylated beads or ELISA plates, blotted, or pulsed onto RAW 264.7 cells; also called L. acidophilus-SlpA; purified SlpA
Regarding B1, the binding result (in assay [1]; with hFc) was “no binding” throughout.
